Assay [1] addresses T1, CD38-Fc (UniProt P28907 43-300).
T1 construct: Immobilised on a CM5 chip at 200 RU; also called CD38 antigen target; not shown: Fc part
Briefly: SPR, CD38-Fc immobilised on CM5 chip, 25 C. The method, then: (§1) CD38-Fc was immobilized on a CM5 sensor chip at 200 response units (RU) using ECD/NHS coupling. […] These bispecific compounds include a protease cleavage site within one of the linker regions. […] All samples were prepared at concentrations of 30 nM, 10 nM, 3 nM or 1 nM in HBS-EP+ runner buffer at 25° C.
(In SPR one partner is held on a chip, and binding of the other changes the refractive index at the surface.)

For assay [2], the target named is T2, CD3 on cells (PBMC, primary patient samples).
T2 construct: whole, on cells
The assay can be described thus: flow cytometry, PBMC treated 1 h with 10 ug/mL of the binder, dot plot CD38-PE against CD3-V450; the C-IgG panel prints 25%; the filing reads the figure as binding to CD3 and CD38. The method, then: (§2) The CD3-CD38 compounds were then incubated with PBMCs to assess binding to CD3 and CD38 antigens presented on effector cells.

Assay [3] addresses T3, CD38 on cells (Nomo-1, SKM-1, MM1S, THP-1, HL60, PBMC, primary patient samples) (UniProt P28907 1-300).
T3 construct: whole, on cells
Briefly: flow cytometry, PBMC treated 1 h with 10 ug/mL of the binder, dot plot CD38-PE against CD3-V450; the C-IgG panel prints 48%; CD3+CD38+ quadrant of this panel: 0%; the filing reads the figure as binding to CD3 and CD38. The method, then: as §2
(In general: A flow cytometer gives signals particle by particle.)

Assay [4] concerns the target T4, CD3-Fc.
T4 construct: Immobilised on a CM5 chip at 1000 RU; also called CD3 target
Briefly: SPR, CD3-Fc immobilised on CM5 chip, 25 C. The method, then:
CD3-Fc was immobilized on a CM5 sensor chip at 1000 response units (RU) using ECD/NHS coupling methods. […] All samples were prepared at concentrations of 30 nM, 10 nM, 3 nM or 1 nM in HBS-EP+ runner buffer at 25° C.

Assay [5] concerns the target T1, CD38-Fc. The assay can be described thus: SPR, CD38-Fc immobilised on CM5 chip, 25 C; ** = kd outside of detectable limits. The method, then:
as §1

B1: 3-38BN001 (5F1K) (bispecific antibody)
chain: EVQLVESGGGLVQPGRSLRLSCAASGFTFDDYTMHWVRQAPGKGLEWVSDISWNSGSIGYADSVKGRFTVSRDNAKNSLYLQMNSLRGEDTAIYYCAKDMSGYGHYGKYGMDVWGQGTTVTVSSASTKGPSVFPLAPSSKSTSGGTAALGCLVKDYFPEPVTVSWNSGALTSGVHTFPAVLQSSGLYSLSSVVTVPSSSLGTQTYICNVNHKPSNTKVDKKVEPKSCAASGGAGSDVQLQESGGGLVQAGGSLRLSCTGSGRTFRNYPMAWFRQAPGKEREFVAGITWVGASTLYADFAKGRFTISRDNAKNTVYLQMNSLKPEDTAVYSCAAGRGIVAGRIPAEYADWGQGTQVTVSSGAVPLSLYGAGGDIQMTQSPILLSASVGDRVTITCRASQSIRSYLNWYQQRTNGSPRLLIYAASSLQSGVPSRFSGSGSGTDFTLTINSLQPDDEADYYCQQTYSNPPITFGAGTRLEIKRTVAAPSVFIFPPSDEQLKSGTASVVCLLNNFYPREAKVQWKVDNALQSGNSQESVTEQDSKDSTYSLSSTLTLSKADYEKHKVYACEVTHQGLSSPVTKSFNRGEC
notes: Single-chain anti-CD3 Fab heavy chain - linker L1 - anti-CD38 nanobody 5F1K - cleavable linker L2 (MMP-9 site) - anti-CD3 light chain; also called 3-38N001; CD3HC-L1-CD38nanobody (5F1K)-L2-CD3LC
In assay [1], B1 showed a Kd of 0.946 nM, a koff of 0.000696 s⁻¹ and a kon of 735000 M⁻¹ s⁻¹. Also, in assay [2], the “CD3 (% of PBMC in the CD3-V450 positive, CD38-PE negative quadrant)” value came to 13%. Besides, the “CD38+ (% of PBMC in the CD38-PE positive, CD3-V450 negative quadrant)” value in assay [3] stood at 1%.

B2: 3-38BN004 (5F1K) (bispecific antibody)
chain: EVQLVESGGGLVQPGRSLRLSCAASGFTFDDYTMHWVRQAPGKGLEWVSDISWNSGSIGYADSVKGRFTVSRDNAKNSLYLQMNSLRGEDTAIYYCAKDMSGYGHYGKYGMDVWGQGTTVTVSSASTKGPSVFPLAPSSKSTSGGTAALGCLVKDYFPEPVTVSWNSGALTSGVHTFPAVLQSSGLYSLSSVVTVPSSSLGTQTYICNVNHKPSNTKVDKKVEPKSCAASGGAGSDVQLQESGGGLVQAGGSLRLSCTGSGRTFRNYPMAWFRQAPGKEREFVAGITWVGASTLYADFAKGRFTISRDNAKNTVYLQMNSLKPEDTAVYSCAAGRGIVAGRIPAEYADWGQGTQVTVSSSSGASASAAGGSDIQMTQSPILLSASVGDRVTITCRASQSIRSYLNWYQQRTNGSPRLLIYAASSLQSGVPSRFSGSGSGTDFTLTINSLQPDDEADYYCQQTYSNPPITFGAGTRLEIKRTVAAPSVFIFPPSDEQLKSGTASVVCLLNNFYPREAKVQWKVDNALQSGNSQESVTEQDSKDSTYSLSSTLTLSKADYEKHKVYACEVTHQGLSSPVTKSFNRGEC
notes: also called 3-38N004; CD38-CD3 BIONIC
In assay [1], B2 returned a Kd of 0.962 nM, a koff of 0.000711 s⁻¹ and a kon of 740000 M⁻¹ s⁻¹. Besides, the “CD3 (% of PBMC in the CD3-V450 positive, CD38-PE negative quadrant)” value in assay [2] is 11%. The “CD38+ (% of PBMC in the CD38-PE positive, CD3-V450 negative quadrant)” value in assay [3] was determined as 1%.

B3: 3-38BN002 (5F1O) (bispecific antibody)
chain: EVQLVESGGGLVQPGRSLRLSCAASGFTFDDYTMHWVRQAPGKGLEWVSDISWNSGSIGYADSVKGRFTVSRDNAKNSLYLQMNSLRGEDTAIYYCAKDMSGYGHYGKYGMDVWGQGTTVTVSSASTKGPSVFPLAPSSKSTSGGTAALGCLVKDYFPEPVTVSWNSGALTSGVHTFPAVLQSSGLYSLSSVVTVPSSSLGTQTYICNVNHKPSNTKVDKKVEPKSCAASGGAGSDVQLQESGGGLVQAGHSLRLSCVGSGSRFDNYAMGWFRQAPGKEREFVAAISWSSGTTRYLDTVKGRFTISRDNAKSTVYLQMNSLKPEDTAVYYCAARYQPRYYDSGDMDGYEYDNWGQGTQVTVSSGAVPLSLYGAGGDIQMTQSPILLSASVGDRVTITCRASQSIRSYLNWYQQRTNGSPRLLIYAASSLQSGVPSRFSGSGSGTDFTLTINSLQPDDEADYYCQQTYSNPPITFGAGTRLEIKRTVAAPSVFIFPPSDEQLKSGTASVVCLLNNFYPREAKVQWKVDNALQSGNSQESVTEQDSKDSTYSLSSTLTLSKADYEKHKVYACEVTHQGLSSPVTKSFNRGEC
notes: Single chain with cleavable linker L2 (MMP-9 site); also called 38N002; CD3HC-L1-CD38nanobody (5F1O)-L2-CD3LC
In assay [4], B3 yielded a Kd of 530 nM, a koff of 0.0227 s⁻¹ and a kon of 42900 M⁻¹ s⁻¹. In assay [1], this molecule gave a Kd of 0.772 nM, an off-rate (koff) of 0.000127 s⁻¹ and a kon of 165000 M⁻¹ s⁻¹. Besides, the “CD3 (% of PBMC in the CD3-V450 positive, CD38-PE negative quadrant)” value in assay [2] was found to be 12%.

B4: 3-38BN005 (5F1O) (bispecific antibody)
chain: EVQLVESGGGLVQPGRSLRLSCAASGFTFDDYTMHWVRQAPGKGLEWVSDISWNSGSIGYADSVKGRFTVSRDNAKNSLYLQMNSLRGEDTAIYYCAKDMSGYGHYGKYGMDVWGQGTTVTVSSASTKGPSVFPLAPSSKSTSGGTAALGCLVKDYFPEPVTVSWNSGALTSGVHTFPAVLQSSGLYSLSSVVTVPSSSLGTQTYICNVNHKPSNTKVDKKVEPKSCAASGGAGSDVQLQESGGGLVQAGHSLRLSCVGSGSRFDNYAMGWFRQAPGKEREFVAAISWSSGTTRYLDTVKGRFTISRDNAKSTVYLQMNSLKPEDTAVYYCAARYQPRYYDSGDMDGYEYDNWGQGTQVTVSSSSGASASAAGGSDIQMTQSPILLSASVGDRVTITCRASQSIRSYLNWYQQRTNGSPRLLIYAASSLQSGVPSRFSGSGSGTDFTLTINSLQPDDEADYYCQQTYSNPPITFGAGTRLEIKRTVAAPSVFIFPPSDEQLKSGTASVVCLLNNFYPREAKVQWKVDNALQSGNSQESVTEQDSKDSTYSLSSTLTLSKADYEKHKVYACEVTHQGLSSPVTKSFNRGEC
notes: Single chain with non-cleavable linker L2; also called CD3HC-L1-CD38nanobody (5F1O)-L2-CD3LC
In assay [1], B4 had a kon of 590000 M⁻¹ s⁻¹. The molecule further came in with an off-rate constant (koff) in assay [5] of under 1e-05 s⁻¹. The “CD3 (% of PBMC in the CD3-V450 positive, CD38-PE negative quadrant)” value in assay [2] was 11%.

B5: 3-38BN003 (5F21) (bispecific antibody)
chain: EVQLVESGGGLVQPGRSLRLSCAASGFTFDDYTMHWVRQAPGKGLEWVSDISWNSGSIGYADSVKGRFTVSRDNAKNSLYLQMNSLRGEDTAIYYCAKDMSGYGHYGKYGMDVWGQGTTVTVSSASTKGPSVFPLAPSSKSTSGGTAALGCLVKDYFPEPVTVSWNSGALTSGVHTFPAVLQSSGLYSLSSVVTVPSSSLGTQTYICNVNHKPSNTKVDKKVEPKSCAASGGAGSDVQLQESGGGSVQAGGSLTLSCTASGLLFRLASMGWYRQAPGKERELIATITVGGKTNYKDSVQGRFIITRDNTGDNTKSTVTLQMNRLKPEDTAVYYCNTASPAVGADTWGQGTRVTVSSGAVPLSLYGAGGDIQMTQSPILLSASVGDRVTITCRASQSIRSYLNWYQQRTNGSPRLLIYAASSLQSGVPSRFSGSGSGTDFTLTINSLQPDDEADYYCQQTYSNPPITFGAGTRLEIKRTVAAPSVFIFPPSDEQLKSGTASVVCLLNNFYPREAKVQWKVDNALQSGNSQESVTEQDSKDSTYSLSSTLTLSKADYEKHKVYACEVTHQGLSSPVTKSFNRGEC
notes: Single chain with cleavable linker L2 (MMP-9 site); also called 38N003; CD3HC-L1-CD38nanobody (5F21)-L2-CD3LC
In assay [4], B5 displayed a Kd of 522 nM, a koff of 0.0525 s⁻¹ and a kon of 101000 M⁻¹ s⁻¹. In assay [1], this molecule had a Kd of 0.478 nM, a koff of 6.84e-05 s⁻¹ and a kon of 143000 M⁻¹ s⁻¹. Moreover, the “CD3 (% of PBMC in the CD3-V450 positive, CD38-PE negative quadrant)” value in assay [2] was 12%. In addition, the “CD38+ (% of PBMC in the CD38-PE positive, CD3-V450 negative quadrant)” value in assay [3] is 15%.

B6: 3-38BN006 (5F21) (bispecific antibody)
chain: EVQLVESGGGLVQPGRSLRLSCAASGFTFDDYTMHWVRQAPGKGLEWVSDISWNSGSIGYADSVKGRFTVSRDNAKNSLYLQMNSLRGEDTAIYYCAKDMSGYGHYGKYGMDVWGQGTTVTVSSASTKGPSVFPLAPSSKSTSGGTAALGCLVKDYFPEPVTVSWNSGALTSGVHTFPAVLQSSGLYSLSSVVTVPSSSLGTQTYICNVNHKPSNTKVDKKVEPKSCAASGGAGSDVQLQESGGGSVQAGGSLTLSCTASGLLFRLASMGWYRQAPGKERELIATITVGGKTNYKDSVQGRFIITRDNTGDNTKSTVTLQMNRLKPEDTAVYYCNTASPAVGADTWGQGTRVTVSSSSGASASAAGGSDIQMTQSPILLSASVGDRVTITCRASQSIRSYLNWYQQRTNGSPRLLIYAASSLQSGVPSRFSGSGSGTDFTLTINSLQPDDEADYYCQQTYSNPPITFGAGTRLEIKRTVAAPSVFIFPPSDEQLKSGTASVVCLLNNFYPREAKVQWKVDNALQSGNSQESVTEQDSKDSTYSLSSTLTLSKADYEKHKVYACEVTHQGLSSPVTKSFNRGEC
notes: Single chain with non-cleavable linker L2; also called 38N006; CD3HC-L1-CD38nanobody (5F21)-L2-CD3LC
In assay [1], B6 showed a Kd of 0.473 nM, a koff of 7.33e-05 s⁻¹ and a kon of 155000 M⁻¹ s⁻¹. Moreover, the “CD3 (% of PBMC in the CD3-V450 positive, CD38-PE negative quadrant)” value in assay [2] worked out at 12%. Besides, the “CD38+ (% of PBMC in the CD38-PE positive, CD3-V450 negative quadrant)” value in assay [3] turned out to be 11%.

Broadly, the Kd is the concentration at which binding is half-saturated. A low value points to a tighter complex. What is called koff is the rate constant with which the complex falls apart. A high value points to fast dissociation. For orientation: kon means the second-order rate constant of association. Lower therefore signals slower complex formation.
